According to the supplement of paper PMC9170038:

Test system: K4 kissing-loop RNA reporter
Experiment: apparent KD of K4 kissing-loop reporter; higher = weaker reporter binding
Conditions: Eterna round: R107
Experimental: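 RNA-MaP round R107: designed RNA switches with theophylline, tryptophan, arginine or FMN aptamers are transcribed on-chip within common flanks. They are titrated with a labelled K4 kissing-loop RNA reporter in RNA-MaP buffer (100 mM Tris pH 7.5, 80 mM KCl, 4 mM MgCl2), without ligand or with the indicated ligand. Median apparent KD per design.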

[1] = input ligand: theophylline 20 uM
[2] = input ligand: tryptophan 2.4 mM
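Further: bound reporter read as fluorescence of individual clusters on recovered sequencing chips by microscopy, with normalized cluster intensities fitted with a binding model.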

Sequence | apparent KD of K4 kissing-loop reporter (input ligand: FMN 200 uM) [nM] | apparent KD of K4 kissing-loop reporter (input ligand: arginine 13.2 mM) [nM] | apparent KD of K4 kissing-loop reporter (input ligand: none) [nM] | apparent KD of K4 kissing-loop reporter [1] [nM] | apparent KD of K4 kissing-loop reporter [2] [nM]
UAUUUAGUGACGGCCGCCACUAUUGUGAUUUAAUUGUUUGAGUGAUGUUUUGAUGUUUGAUUUUGUAGGACCGGGUUAUGUGUUA [tyttmullin] | 1020 | 745 | 827 | 791 | 749
UCACAGUCCAAAGGAUAUUGAGUGCGCGUGCGAUUUAAGCUGAAGCCGUAGCUAGUGAUGUUAGCCCAAGAAGGUUGGUAGCCAG [theeternabot_exclusion_KL_FMN_B_16] | 136 | 128 | 140 | 193 | 115
UCCAGCAGUACUGAUACCAGACUGCAUGUAGUGAUGUUGCAUAAGGGCAUAGAUGUCUCAGUCCCUUGGCAGCGGUACUGUUGCA [#09 K4 Theophylline B Same State] | 379 | 294 | 325 | 251 | 286
UCCCGAGUGAUGUUCGGCGCGGUCACCGAAGGAGCGGGCGAAAGCCCAGGUAGGUCGCGGUAGCGGAGUGAUUCUCCGCGACCGC [Same State Arginine A GF 24] | 509 | 241 | 286 | 344 | 298
UCCGAGCUUAUUGAUACCAGUUCGGCGAGCUACUAGAGUGAUGUUCUUGUAAGCGUACACAACCCUUGGCAGCAAUAGAGGAGGU [theeternabot_sameState_KL_Theo_B_37] | 157 | 128 | 135 | 130 | 135
UCCGGUCGGUGAGCCAGUGAUGUUGGUCAGAAGGAUAUCUGGCAACAGAGAAGGUCUGCAUCAGCCUAGAUAUCCUGGCGACCGG | 145 | 91.4 | 79 | 84.2 | 69.2
UCCUAGACUUAGCUAGGUAUAUAAUACGAUACCAGUCUAGAGAUAGACCCUUGGCAGCGUAGGCAGUGAUGUUGCCACUAGCUGA [Theo B SS t7a] | 97.6 | 110 | 103 | 111 | 101
UCCUAGGACUUCAGGCGAAAGCCCUGCGAAGGAGCGUGCGAAAGCACAGGUAGGUCGCGCAGUGAUGUUGCACCUAGGUAAUAAA [#SwitchBubble 20 #K4Late] | 481 | 656 | 489 | 1020 | 124
UCCUAGGCUCGAAAGAGCCUAGGAUUUACUCAGGAUAUCCGGAAACGGAGAAGGGAGUGACUAGUGAUGUUAGGGACUCCCUAUU | 93.1 | 81.7 | 87.9 | 85.2 | 94.4
UCCUGCAAUCUGCCACGAAAGUGGAUGGAUACCAGAGUCGAAAGACUCCCUUGGCAGCCAGUGAUGUUGGAAGCAGGUAAAUAAA | 268 | 396 | 454 | 460 | 271
UCCUUUUUUGCCAGUGAUGUUGGACAGGAAGGAGCGGGCAUAAGCCCAGGUAGGUCGCCUGUCAACUUUCUUAUAGCCCUAAGGU [Edveza] | 271 | 226 | 236 | 210 | 245
UCGAAGGAUGGAAGGAGCGCUCGUCAGUCCUGCGAGUGAUGUUCGUGGGUAAAUAUUCGCGAGCAGGUAGGUCGCCAUCUUGAGA [Laatla] | 135 | 96.7 | 112 | 108 | 129
UCGAUGGCCAGCGAUACCAGCCCAGUGAUGUUGGGCACAUGGUUGCGGGAAAUCCCAUUGGGCCCUUGGCAGCGCUUGCAUAGGU [Cezaat] | 197 | 155 | 162 | 219 | 171
UCGGACCCUGGAGGAUAUGAGUCGAGUGAUGUUCGGCGGUCCAUGCCGAUGCGGCGUUAUGCCCUUUUAGAAGGCCAGGGUCCGA [#2 Exclusion - FMN B Attempt #10 (HarryS)] | 498 | 216 | 277 | 268 | 264
UCGGACGCGCACCUAGGCCAAUCCACUGCGAAGGAUAUGCGCGCCAGCAGAAGGUCGUUUUAUGAGUGAUGUUUAGAAACAGCGU [theeternabot_exclusion_KL_FMN_A_25] | 428 | 250 | 305 | 294 | 246
UCGGGCGGCUGAAGGAGCGGGCGGGCCCGAGUGAUGUUCGGGUGGGCUGUGAGGCCCGGAGCCCAGGUAGGUCGCGGUUCCGCCC [#2 Same State - Arginine B Attempt #28 (HarryS)] | 262 | 181 | 157 | 168 | 158

Sequence | apparent KD of K4 kissing-loop reporter (input ligand: FMN 200 uM) [nM] | apparent KD of K4 kissing-loop reporter (input ligand: arginine 13.2 mM) [nM] | apparent KD of K4 kissing-loop reporter (input ligand: none) [nM] | apparent KD of K4 kissing-loop reporter [1] [nM] | apparent KD of K4 kissing-loop reporter [2] [nM]
UCUGUGUCCGCGGCCGCCACUCGGGACUAAGUGAUGUUUAGUCCUUCAGAAUAAAGAAGUGAUGAGAGGACCGGGCGAUCGCACC [theeternabot_sameState_KL_Trp_B_2] | 100 | 81.9 | 99.6 | 72.3 | 102
UCUGUUGUAUAUGAUACCAGCAGUGAGAGACAGGAAGUAUAGUGAUGUUAUAUGAGAGAAUGCCCUUGGCAGCGUGUGCGGUUGG [SSTheophylB.W] | 191 | 158 | 155 | 148 | 131
UCUGUUGUAUAUGAUACCAGCAGUGAGAGACGAGAAGUAUAGUGAUGUUAUAUGAGAGAAUGCCCUUGGCAGCGUGUGCGUGUGG [SSTheophylB.aB] | 111 | 110 | 95.4 | 118 | 83.2
UGAACCGCCCAGUGAUGUUGGGCCAUAGAUACCAGCCUCUCCGACGGCCCUUGGCAGCUAGGGCCCGGCAGGUAGGAGACUCUGC [Orarzasove] | 199 | 220 | 272 | 239 | 204
UGACAUUGCUCAGAUACCAGACAUGAGCAUCAGCCAUGUGCCAAAUAAACGUACAUAAAUGUCCCUUGGCAGCUGAGCAAUGUCU [TheoBX 11] | 53 | 33.2 | 38.3 | 118 | 64.9
UGACUACAAAAGGAAUAAUCCUAGUGAUGUUAGGAUAUGCUGAUAAGCAGAAGGAACUGAGAUCGAAAGAUCUCAAAUGUAGUCU [FmnAX 25 Mat Inspired #SwitchBubble #StaticStem #K4Early] | 116 | 89.1 | 92.3 | 103 | 93
UGACUGGACUGAAGGAGCGCGAAACUCCUAGUGAUGUUAGGAAUACGAGACAAAGUCUCGACGCAGGUAGGUCGCAGUCUAGUCU [ArgBS 16 #SwitchBubble #StaticStem] | 115 | 94.5 | 113 | 110 | 100
UGACUGGACUGAAGGAGCGCGCGAGACAAAGUCUCGAACUGGUAGUGAUGUUAUCAAAUAACGCAGGUAGGUCGCAGUCUAGUCU [ArgBS 12 #SwitchBubble #StaticStem] | 251 | 167 | 255 | 193 | 188
UGACUGGACUGAAGGAGCGUGGAAGGAGCGUAAGUAGUGAUGUUGCUUACAGGUAGGUCGCCGCAGGUAGGUCGCAGUCUAGUCU | 62.5 | 47.4 | 56.5 | 53.6 | 63.5
UGACUGGACUGAAGGAGCGUUCAGGUAGGUCGCUAAGGAGUGAUGUUCCAUAGAAGGAGCGAACAGGUAGGUCGCAGUCUAGUCU [ArgBS 29 #DoubleAptamer #SwitchBubble] | 139 | 169 | 163 | 190 | 102
UGACUGGACUGAAGGAGCGUUGAAGGAGCGUAAGUAGUGAUGUUGCUUACAGGUAGGUCGCAGCAGGUAGGUCGCAGUCUAGUCU | 67.1 | 43.7 | 63 | 54.3 | 52.6
UGACUGGAUGGAAGGAGCGCUAAACUCCUAGUGAUGUUAGGGAAACGAGACAAAGUCUCGAGGCAGGUAGGUCGCCAUCUAGUCU [FiskerMod 15 - Jieux - Same State - Arginine B] | 183 | 139 | 168 | 165 | 155
UGACUGGAUGGAAGGAGCGCUAAACUCCUAGUGAUGUUAGGGACACGAGACAAAGUCUCGAAGCAGGUAGGUCGCCAUCUAGUCU [FiskerMod 13 - Jieux - Same State - Arginine B] | 219 | 156 | 160 | 352 | 166
UGACUGGAUGGAAGGAGCGCUAAACUCCUAGUGAUGUUAGGGACACGAGACAAAGUCUUGAAGCAGGUAGGUCGCCAUCUAGUCU [FiskerMod 9 - Jieux - Same State - Arginine B] | 217 | 187 | 229 | 228 | 238
UGAUACCAGACGGCCGCCACUAGACCAGUCAAAGACUGGAUGUGAUGUUUGAGGAGUGAUGUUCCUAGGACCGGGUCUGGUAUCU [TrypBX 4 #Palindromic #SwitchBubble #StaticStem] | 91.3 | 76.7 | 82.4 | 87.6 | 28.2
